Experimental data reported in article PMC10218236.
Several values for one entry are separate records, joined by “and”; a condition that tells them apart may be missing. Equal entries are not always repeated.

target: L1CAM on L1CAM-high cells (LoVo) (Homo sapiens?) (UniProt P32004); experiment: flow cytometry; conditions: PBS, 4.5 g/L glucose, 5 mM MgCl2, 1 mg/mL BSA, 0.1 mg/mL herring sperm DNA; 30 min at 4 °C (or 25/37 °C); pH not stated
Sequence (P32004 20-1257): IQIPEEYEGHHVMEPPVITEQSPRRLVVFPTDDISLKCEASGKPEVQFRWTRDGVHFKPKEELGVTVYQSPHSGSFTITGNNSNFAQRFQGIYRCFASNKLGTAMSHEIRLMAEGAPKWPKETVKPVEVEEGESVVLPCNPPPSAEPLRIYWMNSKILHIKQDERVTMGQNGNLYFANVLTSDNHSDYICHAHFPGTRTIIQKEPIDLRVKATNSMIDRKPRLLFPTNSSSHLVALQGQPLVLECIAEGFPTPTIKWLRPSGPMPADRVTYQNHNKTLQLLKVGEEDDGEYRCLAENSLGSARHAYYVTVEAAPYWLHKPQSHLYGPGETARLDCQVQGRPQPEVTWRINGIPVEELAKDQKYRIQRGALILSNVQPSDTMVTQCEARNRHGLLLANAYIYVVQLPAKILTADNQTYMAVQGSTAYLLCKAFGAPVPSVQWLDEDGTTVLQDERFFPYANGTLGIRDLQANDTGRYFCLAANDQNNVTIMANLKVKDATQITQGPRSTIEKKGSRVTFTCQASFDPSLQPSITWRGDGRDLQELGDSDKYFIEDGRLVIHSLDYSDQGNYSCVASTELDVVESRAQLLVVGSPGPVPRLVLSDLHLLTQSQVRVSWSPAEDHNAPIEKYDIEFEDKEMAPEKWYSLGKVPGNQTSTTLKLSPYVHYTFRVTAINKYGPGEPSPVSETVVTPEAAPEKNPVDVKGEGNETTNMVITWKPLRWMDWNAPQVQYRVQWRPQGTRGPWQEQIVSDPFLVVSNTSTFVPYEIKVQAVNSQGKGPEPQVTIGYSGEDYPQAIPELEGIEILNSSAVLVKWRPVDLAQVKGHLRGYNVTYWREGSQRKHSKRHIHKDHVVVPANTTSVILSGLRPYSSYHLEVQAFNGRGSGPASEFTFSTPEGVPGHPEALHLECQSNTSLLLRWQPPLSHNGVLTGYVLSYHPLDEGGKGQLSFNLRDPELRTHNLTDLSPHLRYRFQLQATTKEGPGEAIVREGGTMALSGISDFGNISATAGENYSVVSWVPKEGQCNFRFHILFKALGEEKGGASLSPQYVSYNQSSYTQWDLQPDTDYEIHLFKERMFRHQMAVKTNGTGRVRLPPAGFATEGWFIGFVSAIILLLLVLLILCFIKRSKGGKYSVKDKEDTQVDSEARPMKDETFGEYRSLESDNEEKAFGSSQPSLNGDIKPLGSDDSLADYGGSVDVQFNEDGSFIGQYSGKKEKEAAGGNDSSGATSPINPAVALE

Sequence	Kd
CAGATAGGGGGTAGCCCGGTCGTGTTTTCGGGTTGTTTGGTGGGTCTTCTG [yly20-T1629C]	155 nM
CAGATAGGGGGTAGCTCGGTCGTGTTTTTGGGTTGTTTGGTGGGTATTCTG [yly20-C46A]	46.4 nM
CAGAAGGGGGTAGCTCGGTCGTGTTTTTGGGTTGTTTGGTGGGTCTTCTG [yly20-5-T]	112 nM
TTTGGGTTGTTTGGTGGGTCTTCTGCAGATAGGGGGTAGCTCGGTCGTGTT [yly20re]	4.2 nM and 4.4 nM and 13 nM
AGGATAGGGGGTAGCTCGGTCGTGTTTTTGGGTTGTTTGGTGGGTCTTCTG [yly12]	21.6 nM and 111 nM
CGGATAGGGGGTAGCTCGGTCGTGTTTTTGGGTTGTTTGGTGGGTCTTCTG [yly34]	3.4 nM and 7.2 nM and 18.7 nM
AGCGCAGATAGGGGGTAGCTCGGTCGTGTTTTTGGGTTGTTTGGTGGGTCTTCTGCGCT [yly21]	1.3 nM and 0.9 nM and 5.1 nM
CAGATAGGGGGTAGCTCGGTCGTGTTTTTGGGTTGTTTGGTGGGTCTTCTG [yly20]	2.3 nM and 1.9 nM and 7.6 nM
CAGATAGGGGGTAGCTCGGTCGTGTTTTTGGGTTGTTTGGTGGGCCTTCTG [yly20-T45C]	66.9 nM
CAGATAGGGGGTAGCTCGGTCGTGTTTCTGGGTTGTTTGGTGGGTCTTCTG [yly20-T28C]	5.3 nM
AGCGCAGAAGGGGGTAGCTCGGTCGTGTTTTTGGGTTGTTTGGTGGGTCTTCTGCGCT [yly21-9-T]	107 nM
CAGATAGGGGGTAGCTCGGTCGTGTTTTTGGGTTATTTGGTGGGTCTTCTG [yly20-G35A]	53.1 nM
CAGATAGGGGGTAGCTCGGTCGTGTTTTTGGGCTGTTTGGTGGGTCTTCTG [yly20-T33C]	9.5 nM
CAGATAGGGGGTAGCTCGGTCGTGATTTTGGGTTGTTTGGTGGGTCTTCTG [yly20-T25A]	1.7 nM
CAGATAGGGGGTAGCTCGGTCATGTTTTTGGGTTGTTTGGTGGGTCTTCTG [yly20-G22A]	1.3 nM
CAGATAGGGGGTAGCCCGGTCGTGTTTTTGGGTTGTTTGGTGGGTCTTCTG [yly20-T16C]	44.2 nM
CAGATAGAGGGTAGCTCGGTCGTGTTTTTGGGTTGTTTGGTGGGTCTTCTG [yly20-G8A]	18.9 nM
GGGATAGGGGGTAGCTCGGTCGTGTTTTTGGGTTGTTTGGTGGGTCTTCTG [yly33]	6.2 nM and 12 nM and 41.4 nM
CAGATAGGGGGTAGCTAGGTCGTGTTTTTGGGTTGTTTGGTGGGTCTTCTG [yly20-C17A]	3.4 nM
CAGATAGGGGGTAGCTCGGTCGTGTTTTCGGGTTGTTTGGTGGGTCTTCTG [yly20-T29C]	4.2 nM
CAGATAGGGGGTAGCTCGGTCGTGTTTCCGGGTTGTTTGGTGGGTCTTCTG [yly20-T2829C]	55.9 nM

same assay, conditions: PBS, 4.5 g/L glucose, 5 mM MgCl2, 1 mg/mL BSA, 0.1 mg/mL herring sperm DNA; 30 min at 4 °C (or 25/37 °C); pH not stated; cited from earlier work

Sequence	Kd [nM]
AGGATAGGGGGTAGCTCGGTCGTGTTTTTGGGTTGTTTGGTGGGTCTTCTG [yly12]	3.5
AGGATAGGGGGTAGCTCGGTCGTGTTTTTGGGTTGTTTGGTGGGTCTT [yly13]	369
ATAGGGGGTAGCTCGGTCGTGTTTTTGGGTTGTTTGGTGGGTCTTCTG [yly14]	92
TAGGGGGTAGCTCGGTCGTGTTTTTGGGTTGTTTGGTGGGTCTTCTG [yly16]	330
